From patent US20160120951A1 (ZEALAND PHARMA A S, published 2016)
Numbered stars: 1 amine (or outer) side, 2 acyl side, 3 side chain; on linkers, the order of the positions; unused ones are H or OH. Square brackets hold non-standard residues; d marks the D form. Side chains are listed from the residue outwards. * marks the point of attachment. isoGlu = used interchangeably with γ-Glu; γGlu = O=C(O)[C@H](CCC(=O)[*:2])N[*:1]; Palmitoyl = CCCCCCCCCCCCCCCC(=O)*; Aib = CC(C)(N)C(=O)O

B1: Compound 18 (peptide)
peptide: H-H[Aib]QGTFTSDYSKYLDSK([γGlu-Palmitoyl])AAHDFVEWLLS-OH
SMILES: CCCCCCCCCCCCCCCC(=O)N[C@@H](CCC(=O)NCCCC[C@H](NC(=O)[C@H](CO)NC(=O)[C@H](CC(=O)O)NC(=O)[C@H](CC(C)C)NC(=O)[C@H](Cc1ccc(O)cc1)NC(=O)[C@H](CCCCN)NC(=O)[C@H](CO)NC(=O)[C@H](Cc1ccc(O)cc1)NC(=O)[C@H](CC(=O)O)NC(=O)[C@H](CO)NC(=O)[C@@H](NC(=O)[C@H](Cc1ccccc1)NC(=O)[C@@H](NC(=O)CNC(=O)[C@H](CCC(N)=O)NC(=O)C(C)(C)NC(=O)[C@@H](N)Cc1c[nH]cn1)[C@@H](C)O)[C@@H](C)O)C(=O)N[C@@H](C)C(=O)N[C@@H](C)C(=O)N[C@@H](Cc1c[nH]cn1)C(=O)N[C@@H](CC(=O)O)C(=O)N[C@@H](Cc1ccccc1)C(=O)N[C@H](C(=O)N[C@@H](CCC(=O)O)C(=O)N[C@@H](Cc1c[nH]c2ccccc12)C(=O)N[C@@H](CC(C)C)C(=O)N[C@@H](CC(C)C)C(=O)N[C@@H](CO)C(=O)O)C(C)C)C(=O)O
B2: Compound 19 (peptide)
peptide: H-H[Aib]QGTFTSDYSKYLDSK([γGlu-Palmitoyl])AAHDFVEWLL-OH
SMILES: CCCCCCCCCCCCCCCC(=O)N[C@@H](CCC(=O)NCCCC[C@H](NC(=O)[C@H](CO)NC(=O)[C@H](CC(=O)O)NC(=O)[C@H](CC(C)C)NC(=O)[C@H](Cc1ccc(O)cc1)NC(=O)[C@H](CCCCN)NC(=O)[C@H](CO)NC(=O)[C@H](Cc1ccc(O)cc1)NC(=O)[C@H](CC(=O)O)NC(=O)[C@H](CO)NC(=O)[C@@H](NC(=O)[C@H](Cc1ccccc1)NC(=O)[C@@H](NC(=O)CNC(=O)[C@H](CCC(N)=O)NC(=O)C(C)(C)NC(=O)[C@@H](N)Cc1c[nH]cn1)[C@@H](C)O)[C@@H](C)O)C(=O)N[C@@H](C)C(=O)N[C@@H](C)C(=O)N[C@@H](Cc1c[nH]cn1)C(=O)N[C@@H](CC(=O)O)C(=O)N[C@@H](Cc1ccccc1)C(=O)N[C@H](C(=O)N[C@@H](CCC(=O)O)C(=O)N[C@@H](Cc1c[nH]c2ccccc12)C(=O)N[C@@H](CC(C)C)C(=O)N[C@@H](CC(C)C)C(=O)O)C(C)C)C(=O)O
B3: Compound 20 (peptide)
peptide: H-H[Aib]EGTFTSDYSKYLDSK([γGlu-Palmitoyl])AAHDFVEWLLSA-OH
SMILES: CCCCCCCCCCCCCCCC(=O)N[C@@H](CCC(=O)NCCCC[C@H](NC(=O)[C@H](CO)NC(=O)[C@H](CC(=O)O)NC(=O)[C@H](CC(C)C)NC(=O)[C@H](Cc1ccc(O)cc1)NC(=O)[C@H](CCCCN)NC(=O)[C@H](CO)NC(=O)[C@H](Cc1ccc(O)cc1)NC(=O)[C@H](CC(=O)O)NC(=O)[C@H](CO)NC(=O)[C@@H](NC(=O)[C@H](Cc1ccccc1)NC(=O)[C@@H](NC(=O)CNC(=O)[C@H](CCC(=O)O)NC(=O)C(C)(C)NC(=O)[C@@H](N)Cc1c[nH]cn1)[C@@H](C)O)[C@@H](C)O)C(=O)N[C@@H](C)C(=O)N[C@@H](C)C(=O)N[C@@H](Cc1c[nH]cn1)C(=O)N[C@@H](CC(=O)O)C(=O)N[C@@H](Cc1ccccc1)C(=O)N[C@H](C(=O)N[C@@H](CCC(=O)O)C(=O)N[C@@H](Cc1c[nH]c2ccccc12)C(=O)N[C@@H](CC(C)C)C(=O)N[C@@H](CC(C)C)C(=O)N[C@@H](CO)C(=O)N[C@@H](C)C(=O)O)C(C)C)C(=O)O
B4: Compound 21 (peptide)
peptide: HXQGTFTSDYSKYLDSKAAHDFVEWLLSA
modifications: Aib at position 2; K(Hexadecanoyl-isoGlu) at position 17; free C-terminal acid (OH)
B5: Compound 22 (peptide)
peptide: H-H[Aib]EGTFTSDYSKYLDSK([γGlu-Palmitoyl])AAHDFVEWLLSA-NH2
SMILES: CCCCCCCCCCCCCCCC(=O)N[C@@H](CCC(=O)NCCCC[C@H](NC(=O)[C@H](CO)NC(=O)[C@H](CC(=O)O)NC(=O)[C@H](CC(C)C)NC(=O)[C@H](Cc1ccc(O)cc1)NC(=O)[C@H](CCCCN)NC(=O)[C@H](CO)NC(=O)[C@H](Cc1ccc(O)cc1)NC(=O)[C@H](CC(=O)O)NC(=O)[C@H](CO)NC(=O)[C@@H](NC(=O)[C@H](Cc1ccccc1)NC(=O)[C@@H](NC(=O)CNC(=O)[C@H](CCC(=O)O)NC(=O)C(C)(C)NC(=O)[C@@H](N)Cc1c[nH]cn1)[C@@H](C)O)[C@@H](C)O)C(=O)N[C@@H](C)C(=O)N[C@@H](C)C(=O)N[C@@H](Cc1c[nH]cn1)C(=O)N[C@@H](CC(=O)O)C(=O)N[C@@H](Cc1ccccc1)C(=O)N[C@H](C(=O)N[C@@H](CCC(=O)O)C(=O)N[C@@H](Cc1c[nH]c2ccccc12)C(=O)N[C@@H](CC(C)C)C(=O)N[C@@H](CC(C)C)C(=O)N[C@@H](CO)C(=O)N[C@@H](C)C(N)=O)C(C)C)C(=O)O
B6: Compound 23 (peptide)
peptide: HXQGTFTSDYSKYLDSKAAHDFVEWLLSA
modifications: Aib at position 2; K(Hexadecanoyl) at position 17; C-terminal amide (NH2)
B7: Compound 24 (peptide)
peptide: HXQGTFTSDYSKYLDSKAAHDFVEWLLSA
modifications: Aib at position 2; K([2-Butyloctanoyl]-isoGlu) at position 17; C-terminal amide (NH2)
B8: Compound 25 (peptide)
peptide: HXQGTFTSDYSKYLDSKAAHDFVEWLLSA
modifications: Aib at position 2; K(Octadecanoyl-isoGlu) at position 17; C-terminal amide (NH2)
B9: Compound 26 (peptide)
peptide: HXQGTFTSDYSKYLDSKAAHDFVEWLLSA
modifications: Aib at position 2; K(Dodecanoyl-isoGlu) at position 17; C-terminal amide (NH2)
B10: Compound 27 (peptide)
peptide: HXQGTFTSDYSKYLDSKAAHDFVEWLLSA
modifications: Aib at position 2; K(Hexadecanoyl-[4-Aminobutanoyl]) at position 17; C-terminal amide (NH2)
B11: Compound 28 (peptide)
peptide: HXQGTFTSDYSKYLDSKAAHDFVEWLLSA
modifications: Aib at position 2; K(Hexadecanoyl-E) (Hexadecanoyl-αGlu) at position 17; C-terminal amide (NH2)
B12: Compound 29 (peptide)
peptide: HXQGTFTSDYSKYLDSKAAHDFVEWLLSA
modifications: Aib at position 2; K(Hexadecanoyl-[8-Aminooctanoyl]) at position 17; C-terminal amide (NH2)
B13: Compound 30 (peptide)
peptide: HXQGTFTSDYSKYLDSKAAHDFVEWLLSA
modifications: Aib at position 2; K(Hexadecanoyl-isoLys) at position 17; C-terminal amide (NH2)
B14: Compound 31 (peptide)
peptide: HXQGTFTSDYSKYLDSKAAHDFVEWLLSA
modifications: Aib at position 2; K(Hexadecanoyl-[3-Aminopropanoyl]) at position 17; C-terminal amide (NH2)
B15: Compound 32 (peptide)
peptide: HXQGTFTSDYSKYLDSXAAHDFVEWLLSA
modifications: Aib at position 2; Orn(Hexadecanoyl-isoGlu) at position 17; C-terminal amide (NH2)
B16: Compound 33 (peptide)
peptide: HXQGTFTSDYSKYLDSKAAHDFVEWLLSA
modifications: Aib at position 2; K(Hexadecanoyl-isoGlu) at position 12; C-terminal amide (NH2)
B17: Compound 34 (peptide)
peptide: H-H[Aib]QGTFTSDYSKYLDK([γGlu-Palmitoyl])KAAHDFVEWLLSA-NH2
SMILES: CCCCCCCCCCCCCCCC(=O)N[C@@H](CCC(=O)NCCCC[C@H](NC(=O)[C@H](CC(=O)O)NC(=O)[C@H](CC(C)C)NC(=O)[C@H](Cc1ccc(O)cc1)NC(=O)[C@H](CCCCN)NC(=O)[C@H](CO)NC(=O)[C@H](Cc1ccc(O)cc1)NC(=O)[C@H](CC(=O)O)NC(=O)[C@H](CO)NC(=O)[C@@H](NC(=O)[C@H](Cc1ccccc1)NC(=O)[C@@H](NC(=O)CNC(=O)[C@H](CCC(N)=O)NC(=O)C(C)(C)NC(=O)[C@@H](N)Cc1c[nH]cn1)[C@@H](C)O)[C@@H](C)O)C(=O)N[C@@H](CCCCN)C(=O)N[C@@H](C)C(=O)N[C@@H](C)C(=O)N[C@@H](Cc1c[nH]cn1)C(=O)N[C@@H](CC(=O)O)C(=O)N[C@@H](Cc1ccccc1)C(=O)N[C@H](C(=O)N[C@@H](CCC(=O)O)C(=O)N[C@@H](Cc1c[nH]c2ccccc12)C(=O)N[C@@H](CC(C)C)C(=O)N[C@@H](CC(C)C)C(=O)N[C@@H](CO)C(=O)N[C@@H](C)C(N)=O)C(C)C)C(=O)O
B18: Compound 35 (peptide)
peptide: H-H[Aib]QGTFTSDYSKYLDSKAAK([γGlu-Palmitoyl])DFVEWLLSA-NH2
SMILES: CCCCCCCCCCCCCCCC(=O)N[C@@H](CCC(=O)NCCCC[C@H](NC(=O)[C@H](C)NC(=O)[C@H](C)NC(=O)[C@H](CCCCN)NC(=O)[C@H](CO)NC(=O)[C@H](CC(=O)O)NC(=O)[C@H](CC(C)C)NC(=O)[C@H](Cc1ccc(O)cc1)NC(=O)[C@H](CCCCN)NC(=O)[C@H](CO)NC(=O)[C@H](Cc1ccc(O)cc1)NC(=O)[C@H](CC(=O)O)NC(=O)[C@H](CO)NC(=O)[C@@H](NC(=O)[C@H](Cc1ccccc1)NC(=O)[C@@H](NC(=O)CNC(=O)[C@H](CCC(N)=O)NC(=O)C(C)(C)NC(=O)[C@@H](N)Cc1c[nH]cn1)[C@@H](C)O)[C@@H](C)O)C(=O)N[C@@H](CC(=O)O)C(=O)N[C@@H](Cc1ccccc1)C(=O)N[C@H](C(=O)N[C@@H](CCC(=O)O)C(=O)N[C@@H](Cc1c[nH]c2ccccc12)C(=O)N[C@@H](CC(C)C)C(=O)N[C@@H](CC(C)C)C(=O)N[C@@H](CO)C(=O)N[C@@H](C)C(N)=O)C(C)C)C(=O)O
B19: Compound 36 (peptide)
peptide: H-H[Aib]QGTFTSDYSKYLDSKAAHDFVK([isoGlu-Palmitoyl])WLLSA-NH2
B20: Compound 37 (peptide)
peptide: H-H[Aib]QGTFTSDYSKYLDSKAAHDFVEWLLK([isoGlu-Palmitoyl])A-NH2
B21: Compound 39 (peptide)
peptide: H-H[Aib]QGTFTSDYSKYLDSK([isoGlu-Palmitoyl])AAKDFVEWLLSA-NH2

Columns and labels:
[1] = molecular target: human glucagon receptor (Glucagon-R) (human, UniProt P47871 26-477); test: cell-based or functional assay
[2] = molecular target: human glucagon-like peptide 1 receptor (GLP-1R) (human, UniProt P43220 24-463); test: cell-based or functional assay
human glucagon-like peptide 1 receptor (GLP-1R), sequence (P43220 24-463): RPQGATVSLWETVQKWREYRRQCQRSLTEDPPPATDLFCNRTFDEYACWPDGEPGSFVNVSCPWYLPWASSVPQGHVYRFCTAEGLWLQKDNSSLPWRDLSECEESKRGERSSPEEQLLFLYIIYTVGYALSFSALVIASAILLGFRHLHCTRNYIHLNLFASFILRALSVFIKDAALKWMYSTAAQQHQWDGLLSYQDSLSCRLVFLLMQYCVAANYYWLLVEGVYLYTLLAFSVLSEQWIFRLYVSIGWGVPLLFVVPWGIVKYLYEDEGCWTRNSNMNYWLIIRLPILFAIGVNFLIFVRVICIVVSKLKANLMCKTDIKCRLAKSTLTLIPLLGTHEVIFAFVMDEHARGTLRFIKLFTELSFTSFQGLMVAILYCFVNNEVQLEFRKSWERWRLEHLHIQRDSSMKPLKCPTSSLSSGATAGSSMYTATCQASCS

Binder | EC50 (nM) GluR, cAMP formation [1] [nM] | EC50 (nM) GLP-1R, cAMP formation [2] [nM]
B1 | 0.091 | 0.066
B2 | 0.483 | 0.048
B3 | 13.3 | 0.057
B4 | 0.15 | 0.077
B5 | 26.4 | 0.014
B6 | 0.124 | 0.14
B7 | 0.133 | 0.161
B8 | 0.103 | 0.069
B9 | 0.116 | 0.097
B10 | 0.147 | 0.152
B11 | 0.108 | 0.149
B12 | 0.123 | 0.199
B13 | 0.11 | 0.132
B14 | 0.151 | 0.103
B15 | 0.193 | 0.195
B16 | 0.389 | 0.131
B17 | 0.053 | 0.109
B18 | 0.18 | 0.202
B19 | 0.213 | 0.191
B20 | 0.147 | 0.207
B21 | 0.24 | 0.16
